# In patent US20250297030A1 (SHANDONG SIMCERE BIOPHARMACEUTICAL, published 2025):
# Where two headings read alike, the source gives them in different places.
# T1: Cyno MUC17 ECD3577-his (His-tagged cynomolgus monkey MUC17 protein extracellular domain fusion protein) (cynomolgus monkey)
# T1 construct: also called monkey MUC17-his protein; monkey MUC17 ECD3577-His
# T1 chain: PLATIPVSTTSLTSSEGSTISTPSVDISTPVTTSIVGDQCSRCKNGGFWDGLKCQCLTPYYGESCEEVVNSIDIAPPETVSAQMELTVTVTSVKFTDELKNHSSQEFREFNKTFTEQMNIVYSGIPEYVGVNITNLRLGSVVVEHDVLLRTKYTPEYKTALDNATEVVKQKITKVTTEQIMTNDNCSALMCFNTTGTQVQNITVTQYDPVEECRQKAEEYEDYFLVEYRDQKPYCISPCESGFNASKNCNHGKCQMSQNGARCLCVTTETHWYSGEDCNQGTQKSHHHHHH
# B1: 4C11-hIgG1 (antibody, V domains shown)
# VH: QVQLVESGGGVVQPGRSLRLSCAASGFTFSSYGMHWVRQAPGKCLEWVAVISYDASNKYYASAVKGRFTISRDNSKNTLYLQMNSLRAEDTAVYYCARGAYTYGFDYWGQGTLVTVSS
# VL: EIVLTQSPGTLSLSPGERATLSCRASQSVNRYLAWYQQKPGQAPRLLIYGASNRATGIPDRFTGSGSGTDFTLTISRLEPEDFAVYFCHHYGSSIFAFGCGTKVEIKR
# notes: also called MUC17 control antibody
# B2: Lab315 (VHH)
# VHH: DVQLQASGGGAVQAGGSLRLSCAASGDITRRCMGWFRQAPGKEREGVAGISEDGITIYADSVKGRFTISKDNAKNSLYLQMNSLAPEDTANYSCAASILNRVGCRQLSYEYIYRGQGTQVTVSS
# notes: also called Lab315 phage clone; SCR-7724
# Legend:
# [1] = target: human MUC17 on NUGC4 endogenous tumor cells (human, UniProt Q685J3 26-4493); assay: FACS on NUGC4 cells, MFI
# Description: Then a complete medium was added to stop the digestion, and the cells were blown into a single cell suspension. After counting, the cells were centrifuged, and the cell pellet was resuspended to 2×10⁶ cells/mL in an FACS buffer (PBS+2% fetal bovine serum), and added to a 96-well FACS reaction plate at 100 µL/well. The plate was centrifuged, and the supernatant was discarded. An antibody sample to be tested (diluted in a 3-fold gradient from a starting concentration of 100 nM) was added at 50 µL/well and uniformly mixed with the cells, and the mixture was incubated at 4° C. for 1 h. […] The results were tested and analyzed by FACS (FACS Canto™, purchased from BD) after the plate was centrifuged and washed 3 times with a PBS buffer and resuspended with 100 μL of PBS. Data analysis was performed by software (FlowJo) to obtain the mean fluorescence intensity (MFI) of the cells. Then, analysis was performed by software (GraphPad Prism8), data were fitted, and EC50 values were calculated. As shown in FIGS. 3A-3B, the recombinant antibodies Lab315-huFc, Lab316-huFc, Lab320-huFc, Lab331-huFc, and Lab332-huFc are all capable of binding specifically to NUGC-4 cells.
# The preparation of the assay cells and the antibodies to be tested and the assay were performed with reference to Example 3.4. […]
# [2] = target: T2, Human MUC17 ECD4131-his (His-tagged human MUC17 protein extracellular domain fusion protein) (human, UniProt Q685J3 4131-4393); assay: ELISA on coated human MUC17 ECD4131-his, OD450
# T2 construct: a truncation of the extracellular domain; also called human MUC17-his protein; human MUC17-His
# Description: (§1) A human MUC17-his protein was diluted with PBS to a final concentration of […] and then added to a 96-well ELISA plate at 50 µL/well. The plate was incubated at 4° C. overnight. The next day, the plate was washed 2 times with PBST, and a blocking buffer [PBS+2% (w/w) BSA] was added for blocking at room temperature for 2 h. The blocking buffer was discarded, and the recombinant antibody and positive and negative control antibody with a starting concentration of 100 nM serially diluted by 3 folds were added at 50 μL/well. After incubation at 37° C. for 1 h, the plate was washed 3 times with PBST. A horseradish peroxidase (HRP)-labeled secondary antibody (purchased from Merck, Cat. No. AP113P) was added for incubation at 37° C. for 1 h, and the plate was washed 5 times with PBST. A TMB substrate was added at 50 μL/well for incubation at room temperature for 10 min, and then a stop solution (1.0 M HCl) was added at 50 µL/well. The OD₄₅₀ nm values were read by an ELISA plate reader (Multimode Plate Reader, EnSight, purchased from Perkin Elmer).
# [3] = target: T2, Human MUC17 ECD4131-his (His-tagged …); assay: ELISA on coated human MUC17 ECD4131-his, OD450; remark: listed apart in the source
# Description: as §1
# [4] = target: T2, Human MUC17 ECD4131-his (His-tagged …); assay: ELISA on coated human MUC17 ECD4131-his, OD450; remark: listed apart in the source
# [5] = target: T2, Human MUC17 ECD4131-his (His-tagged …); assay: ELISA on coated human MUC17 ECD4131-his, OD450; remark: listed apart in the source
# Description: as §1
# [6] = target: T1, Cyno MUC17 ECD3577-his (His-tagged …); assay: ELISA on coated monkey MUC17 ECD3577-His, OD450
# Description: as §1
# (§2) The monkey MUC17-his protein was subjected to ELISA and data analysis according to the method described in Example 3.2. The recombinant antibodies Lab315-huFc, Lab316-huFc, Lab320-huFc, Lab331-huFc, and Lab332-huFc have a relatively good binding activity with the monkey MUC17-his protein.
# [7] = target: T1, Cyno MUC17 ECD3577-his (His-tagged …); assay: ELISA on coated monkey MUC17 ECD3577-His, OD450
# Description: as §1, §2
# [8] = target: T1, Cyno MUC17 ECD3577-his (His-tagged …); assay: ELISA on coated monkey MUC17 ECD3577-His, OD450
# Description: (§3) To assay the binding activity of the humanized antibodies with the monkey MUC17-his protein, the monkey MUC17-his protein was diluted with PBS to a final concentration of […] and subjected to ELISA assay and data analysis according to the method described in Example 3.3. The humanized antibodies SCR-7724, SCR-7782, SCR-7783, SCR-7784, and SCR-7785 have cross-binding activity with the monkey MUC17 protein, maintaining the binding ability of the recombinant antibody.
# [9] = target: T1, Cyno MUC17 ECD3577-his (His-tagged …); assay: ELISA on coated monkey MUC17 ECD3577-His, OD450
# Description: as §3
# [10] = target: T1, Cyno MUC17 ECD3577-his (His-tagged …); assay: ELISA on coated monkey MUC17 ECD3577-His, OD450
# Description: as §3
# [11] = target: T1, Cyno MUC17 ECD3577-his (His-tagged …); assay: ELISA on coated monkey MUC17 ECD3577-His, OD450
# Description: as §3
# [12] = target: T1, Cyno MUC17 ECD3577-his (His-tagged …); assay: phage ELISA and FACS screening
Binder,EC50 (read off the curve) [1] [nM],EC50 (read off the curve) [2] [nM],EC50 (read off the curve) [3] [nM],EC50 (read off the curve) [4] [nM],EC50 (read off the curve) [5] [nM],EC50 (read off the curve) [6] [nM],EC50 (read off the curve) [7] [nM],EC50 (read off the curve) [8] [nM],EC50 (read off the curve) [9] [nM],EC50 (read off the curve) [10] [nM],EC50 (read off the curve) [11] [nM],binding result [12]
B1,~4,~0.05,~0.01,~0.01,~0.05,~0.04,~0.02,~0.05,~0.02,~0.08,~0.08,–
B2,–,–,–,–,–,–,–,–,–,–,–,binds
